The supplement of paper PMC7125110
± gives the standard error. For some assays here: Variants at the floor of the assay were thinned out.

B1: glmS ribozyme (parent)
chain: AUAAAAGCGCCAGAACUACAGAAAUGUAGUUGACGAGGAGGAGGUUUAUCGAAUUUUCGGCGGAUGCCUCCAAA

Key:
Conditions in all cases: with glucosamine-6-phosphate
[1] = variants of: B1; test: kcat; higher = faster cleavage; RNA array
How it was run: (§1)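 Tiles bearing barcoded ribozyme variants, transcribed in situ by E. coli RNA polymerase on sequenced MiSeq chips, were imaged over ~14 h at 37 °C using a hybridised Cy3 probe. Glucosamine-6-phosphate was supplied at 40 μM to 10 mM in HEPES/KCl/Mg(OAc)2 buffer. kobs came from one- or two-exponential decay fits to normalised per-tile medians, and weighted Michaelis–Menten fits then provided kcat and KM.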

[2] = variants of: B1; test: self-cleavage kobs at 160 uM GlcN6P; higher = faster cleavage; RNA array
How it was run: as §1

[3] = variants of: B1; test: self-cleavage kobs at 640 uM GlcN6P; higher = faster cleavage; RNA array
How it was run: as §1

[4] = variants of: B1; test: KM; higher = weaker cofactor use; RNA array
How it was run: as §1

[5] = variants of: B1; test: self-cleavage kobs at 2500 uM GlcN6P; higher = faster cleavage; RNA array
How it was run: as §1

[6] = variants of: B1; test: self-cleavage kobs at 10000 uM GlcN6P; higher = faster cleavage; RNA array
How it was run: as §1

[7] = variants of: B1; test: self-cleavage kobs at 40 uM GlcN6P; higher = faster cleavage; RNA array
How it was run: as §1

Variant	kcat [1] [s⁻¹]	self-cleavage kobs at 160 uM GlcN6P [2] [s⁻¹]	self-cleavage kobs at 640 uM GlcN6P [3] [s⁻¹]	KM [4] [µM]	self-cleavage kobs at 2500 uM GlcN6P [5] [s⁻¹]	self-cleavage kobs at 10000 uM GlcN6P [6] [s⁻¹]	self-cleavage kobs at 40 uM GlcN6P [7] [s⁻¹]
G35C C58U	< 1e-05	< 1e-05	< 1e-05	–	–	–	–
G26U A48C	0.000587 ± 6e-05	–	7.06e-05 ± 1.4e-05	4480 ± 710	0.000222 ± 3.5e-05	0.000394 ± 7.4e-05	–
A14G C68G	0.000237 ± 2.5e-05	4.57e-05 ± 1.1e-05	0.000123 ± 1.6e-05	590 ± 180	0.000181 ± 2.1e-05	0.000235 ± 2.4e-05	3.33e-05 ± 1.1e-05
A14U U46C	0.00036 ± 8.4e-05	6.29e-05 ± 9.9e-06	0.000126 ± 1.4e-05	956 ± 430	0.000395 ± 5.3e-05	0.000305 ± 4e-05	–
G51U C67U	< 1e-05	–	–	–	–	< 1e-05	–
C11U U65G C68U	6.35e-05 ± 2.3e-05	–	–	–	0.000106 ± 3.6e-05	5.53e-05 ± 1.2e-05	–
C16G A33G	< 1e-05	–	–	–	–	–	< 1e-05
A14G U49A	3.99e-05 ± 1e-06	–	–	773 ± 130	–	3.67e-05 ± 1.2e-05	–
U30C C68A	3.05e-05 ± 8e-06	–	–	–	3.62e-05 ± 1.1e-05	–	–
G13A U56C	0.000422 ± 7.9e-06	–	–	–	8.37e-05 ± 2e-05	0.00021 ± 3.7e-05	–
A14C U55A	0.00676 ± 0.0017	0.000546 ± 8.1e-05	0.00145 ± 0.00015	2080 ± 720	0.0031 ± 0.00043	0.00734 ± 0.00098	0.000144 ± 1.6e-05
G40A U56G	0.0035 ± 0.00093	0.000189 ± 3e-05	0.000577 ± 7.7e-05	2840 ± 950	0.00224 ± 0.00044	0.00256 ± 0.00054	6e-05 ± 1.3e-05
U31G U46A	0.000771 ± 0.00021	0.000124 ± 3.6e-05	0.000258 ± 6.7e-05	–	0.000954 ± 0.00016	0.000614 ± 0.0001	–
A14U U30G	0.00494 ± 0.00089	0.000282 ± 3.6e-05	0.000998 ± 0.0001	2220 ± 540	0.0033 ± 0.00052	0.00404 ± 0.00036	0.000104 ± 8.8e-06
A42G U46G	0.017 ± 0.0083	0.000694 ± 0.00017	0.00167 ± 0.00038	–	0.0074 ± 0.0015	0.0115 ± 0.0033	0.000254 ± 6.6e-05
C16U G59U	4.21e-05 ± 7.7e-06	–	–	–	4.99e-05 ± 1.2e-05	3.73e-05 ± 7.2e-06	–
G13A U49C	< 1e-05	–	–	–	–	< 1e-05	< 1e-05

Variant	kcat [1] [s⁻¹]	self-cleavage kobs at 160 uM GlcN6P [2] [s⁻¹]	self-cleavage kobs at 640 uM GlcN6P [3] [s⁻¹]	KM [4] [µM]	self-cleavage kobs at 2500 uM GlcN6P [5] [s⁻¹]	self-cleavage kobs at 10000 uM GlcN6P [6] [s⁻¹]	self-cleavage kobs at 40 uM GlcN6P [7] [s⁻¹]
C50U A52G	1.11e-05 ± 2.8e-06	–	–	–	–	–	–
A36C C58A	1.11e-05 ± 3.9e-06	–	–	–	–	–	< 1e-05
G29U U31A	0.0048 ± 0.0017	0.000159 ± 3.6e-05	0.000947 ± 0.00018	3260 ± 1600	0.0019 ± 0.00044	0.00369 ± 0.00052	9.58e-05 ± 1.6e-05
C10U G32U	4.97e-05 ± 3.1e-06	< 1e-05	–	–	5.05e-05 ± 1.2e-05	4.67e-05 ± 6.1e-06	–
A14G U65C	0.00147 ± 0.00035	0.000176 ± 3.5e-05	0.000445 ± 9.2e-05	1120 ± 420	0.00142 ± 0.00028	0.00124 ± 0.00025	7.25e-05 ± 1.9e-05
U45G U65A	0.0042 ± 0.00043	0.000296 ± 5.3e-05	0.001 ± 0.00012	1990 ± 290	0.00264 ± 0.0004	0.00326 ± 0.00059	8.89e-05 ± 2.1e-05
A53G C67G	0.007 ± 0.0028	0.000304 ± 4.6e-05	0.00225 ± 0.00035	–	0.00466 ± 0.00096	0.00539 ± 0.00069	0.000155 ± 1.6e-05
U31C C61A	3.08e-05 ± 1.2e-05	–	–	–	–	< 1e-05	–
G13C U69G	5.45e-05 ± 1.1e-05	4.33e-05 ± 1.6e-05	9.44e-05 ± 2.5e-05	–	4.52e-05 ± 1.2e-05	–	3.61e-05 ± 1.3e-05
G29A A53C	0.000592 ± 0.0002	9.67e-05 ± 2.5e-05	0.000185 ± 5.1e-05	–	0.00047 ± 0.00011	–	–
G37A U54G	0.00267 ± 0.00094	0.000132 ± 2.9e-05	0.000413 ± 9.4e-05	–	0.000936 ± 0.00022	0.00234 ± 0.00032	6.88e-05 ± 1.3e-05
A14C U46G	0.000823 ± 0.00019	8.78e-05 ± 1.5e-05	0.000209 ± 2.4e-05	1630 ± 660	0.000478 ± 4.8e-05	0.000795 ± 0.0001	4.79e-05 ± 1.2e-05
U30C A52G	1.33e-05 ± 2.9e-06	–	–	–	–	–	–
A39U A42U U55G G66U	0.000223 ± 7.5e-06	–	8.2e-05 ± 2.5e-05	1100 ± 96	0.000166 ± 5.4e-05	0.000198 ± 3.5e-05	–
G32C A53G	0.000158 ± 4.6e-06	–	2.67e-05 ± 9.1e-06	3340 ± 200	6.68e-05 ± 8.8e-06	0.000119 ± 1.5e-05	–
U31C A53G C70U	0.0038 ± 0.00074	–	0.00265 ± 0.00055	620 ± 200	0.00272 ± 0.00079	0.00339 ± 0.00081	0.000212 ± 4.6e-05
